B1: NSUN2 (NOP2/Sun RNA methyltransferase family member 2), wild type, in PANC-1 cells [human (endogenous in PANC-1)] / STUB1 (STIP1 homology and U-box containing protein 1), in PANC-1 cells [human (endogenous in PANC-1)] (parent)
chain 1: MKGKEEKEGGARLGAGGGSPEKSPSAQELKEQGNRLFVGRKYPEAAACYGRAITRNPLVAVYYTNRALCYLKMQQHEQALADCRRALELDGQSVKAHFFLGQCQLEMESYDEAIANLQRAYSLAKEQRLNFGDDIPSALRIAKKKRWNSIEERRIHQESELHSYLSRLIAAERERELEECQRNHEGDEDDSHVRAQQACIEAKHDKYMADMDELFSQVDEKRKKRDIPDYLCGKISFELMREPCITPSGITYDRKDIEEHLQRVGHFDPVTRSPLTQEQLIPNLAMKEVIDAFISENGWVEDY
chain 2: MGRRSRGRRLQQQQRPEDAEDGAEGGGKRGEAGWEGGYPEIVKENKLFEHYYQELKIVPEGEWGQFMDALREPLPATLRITGYKSHAKEILHCLKNKYFKELEDLEVDGQKVEVPQPLSWYPEELAWHTNLSRKILRKSPHLEKFHQFLVSETESGNISRQEAVSMIPPLLLNVRPHHKILDMCAAPGSKTTQLIEMLHADMNVPFPEGFVIANDVDNKRCYLLVHQAKRLSSPCIMVVNHDASSIPRLQIDVDGRKEILFYDRILCDVPCSGDGTMRKNIDVWKKWTTLNSLQLHGLQLRIATRGAEQLAEGGRMVYSTCSLNPIEDEAVIASLLEKSEGALELADVSNELPGLKWMPGITQWKVMTKDGQWFTDWDAVPHSRHTQIRPTMFPPKDPEKLQAMHLERCLRILPHHQNTGGFFVAVLVKKSSMPWNKRQPKLQGKSAETRESTQLSPADLTEGKPTDPSKLESPSFTGTGDTEIAHATEDLENNGSKKDGVCGPPPSKKMKLFGFKEDPFVFIPEDDPLFPPIEKFYALDPSFPRMNLLTRTTEGKKRQLYMVSKELRNVLLNNSEKMKVINTGIKVWCRNNSGEEFDCAFRLAQEGIYTLYPFINSRIITVSMEDVKILLTQENPFFRKLSSETYSQAKDLAKGSIVLKYEPDSANPDALQCPIVLCGWRGKASIRTFVPKNERLHYLRMMGLEVLGEKKKEGVILTNESAASTGQPDNDVTEGQRAGEPNSPDAEEANSPDVTAGCDPAGVHPPR

In this experiment the parent is B1. Kind of experiment: Co-IP (IP: anti-Flag) immunoblot, band quantification. As to conditions: with STUB1 (STIP1 homology and U-box containing protein 1), MG132 +, n = 3, parent: 1, read off a plot. Background: Immunoblotting shows a protein as a band on a membrane.
Consider chain 2 K692E, for which the response (relative intensity) came out at 0.3.

Consider chain 2 K692R, for which the response (relative intensity) came out at 2.

The record behind these values is publication PMC12680535.
